# In publication PMC3690481:
# pKd: −log10 of the molar value.
# How the values were obtained:
# Lys63-linked diUb = Lys63-linked diUb (UniProt P0CG48); assay: fluorescence polarisation; FlAsH-tagged diUb fixed (10 μl of 100 nM plus 10 μl protein), OTULIN C129A variants serially diluted; 20 mM Tris pH 7.4, 100 mM NaCl, 5 mM β-mercaptoethanol, 0.1 mg/ml BSA; one-site binding model; triplicate
# [1] = target: FlAsH-tagged Met1-diUb E16A^prox (UniProt P0CG48); assay: fluorescence anisotropy
pKd (Lys63-linked diUb),pKd [1],Substance
4.92,,OTULIN (1–352) C129A (from UniProt Q96BN8 1-352) (enzyme)
,6.93,m1; m3 OTULIN:N341D; proximal Ub:E16A
